Consider three molecules from patent US20250019680, “ENGINEERED CAS13 FOR ULTRASENSITIVE NUCLEIC ACID DETECTION” (William Marsh Rice University, published 2025).

The target in data set [1] is T1, RBD #2L LwaCas13a (hnRNP A1 1-104 in Loop 1) (Leptotrichia wadei / Homo sapiens). The data set is described as follows: cleavage_in_vitro; collateral cleavage of RNaseAlert.
In data set [2] the target is T2, RBD #3L LwaCas13a (Leptotrichia wadei / Homo sapiens). Described as above.
Data set [3] addresses T3, RBD #6L LwaCas13a (ADAR1 126-202 in Loop 1) (Leptotrichia wadei / Homo sapiens).
T3 chain: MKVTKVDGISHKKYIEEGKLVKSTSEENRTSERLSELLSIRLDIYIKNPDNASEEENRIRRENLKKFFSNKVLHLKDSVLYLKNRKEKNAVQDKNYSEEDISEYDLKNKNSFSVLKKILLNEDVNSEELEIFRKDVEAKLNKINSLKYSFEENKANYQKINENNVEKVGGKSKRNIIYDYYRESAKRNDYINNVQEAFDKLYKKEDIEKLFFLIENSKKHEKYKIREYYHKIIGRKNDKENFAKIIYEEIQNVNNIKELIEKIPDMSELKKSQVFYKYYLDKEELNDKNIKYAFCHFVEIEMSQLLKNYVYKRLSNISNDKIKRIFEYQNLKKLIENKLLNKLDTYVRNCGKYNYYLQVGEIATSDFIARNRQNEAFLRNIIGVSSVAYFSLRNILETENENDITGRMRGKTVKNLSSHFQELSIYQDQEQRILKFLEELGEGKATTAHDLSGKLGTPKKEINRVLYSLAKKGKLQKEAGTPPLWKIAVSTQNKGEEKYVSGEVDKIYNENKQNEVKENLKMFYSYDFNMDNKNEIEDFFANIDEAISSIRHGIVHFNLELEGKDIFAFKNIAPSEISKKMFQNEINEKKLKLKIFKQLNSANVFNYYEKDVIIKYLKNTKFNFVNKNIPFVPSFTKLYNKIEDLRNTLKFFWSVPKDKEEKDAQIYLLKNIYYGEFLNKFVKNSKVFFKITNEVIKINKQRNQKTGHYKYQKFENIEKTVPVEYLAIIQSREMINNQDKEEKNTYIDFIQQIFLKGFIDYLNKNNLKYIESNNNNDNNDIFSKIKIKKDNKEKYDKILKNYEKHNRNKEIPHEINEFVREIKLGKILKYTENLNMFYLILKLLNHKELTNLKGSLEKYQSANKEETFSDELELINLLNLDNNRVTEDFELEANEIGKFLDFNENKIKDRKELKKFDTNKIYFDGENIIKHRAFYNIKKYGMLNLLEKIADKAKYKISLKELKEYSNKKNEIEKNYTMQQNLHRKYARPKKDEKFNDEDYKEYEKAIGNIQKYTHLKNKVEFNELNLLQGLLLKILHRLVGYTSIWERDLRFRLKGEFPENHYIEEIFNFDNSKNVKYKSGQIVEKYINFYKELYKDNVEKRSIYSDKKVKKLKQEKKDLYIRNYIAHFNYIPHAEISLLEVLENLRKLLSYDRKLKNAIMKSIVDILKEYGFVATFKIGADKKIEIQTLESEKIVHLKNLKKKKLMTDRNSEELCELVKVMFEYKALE
Described as above.

For data set [4], the target named is T4, RBD #4L LwaCas13a (Leptotrichia wadei / Homo sapiens). The description is as above.
Data set [5] deals with T5, dWT LwaCas13a (Leptotrichia wadei, R1046A/H1051A).
T5 chain: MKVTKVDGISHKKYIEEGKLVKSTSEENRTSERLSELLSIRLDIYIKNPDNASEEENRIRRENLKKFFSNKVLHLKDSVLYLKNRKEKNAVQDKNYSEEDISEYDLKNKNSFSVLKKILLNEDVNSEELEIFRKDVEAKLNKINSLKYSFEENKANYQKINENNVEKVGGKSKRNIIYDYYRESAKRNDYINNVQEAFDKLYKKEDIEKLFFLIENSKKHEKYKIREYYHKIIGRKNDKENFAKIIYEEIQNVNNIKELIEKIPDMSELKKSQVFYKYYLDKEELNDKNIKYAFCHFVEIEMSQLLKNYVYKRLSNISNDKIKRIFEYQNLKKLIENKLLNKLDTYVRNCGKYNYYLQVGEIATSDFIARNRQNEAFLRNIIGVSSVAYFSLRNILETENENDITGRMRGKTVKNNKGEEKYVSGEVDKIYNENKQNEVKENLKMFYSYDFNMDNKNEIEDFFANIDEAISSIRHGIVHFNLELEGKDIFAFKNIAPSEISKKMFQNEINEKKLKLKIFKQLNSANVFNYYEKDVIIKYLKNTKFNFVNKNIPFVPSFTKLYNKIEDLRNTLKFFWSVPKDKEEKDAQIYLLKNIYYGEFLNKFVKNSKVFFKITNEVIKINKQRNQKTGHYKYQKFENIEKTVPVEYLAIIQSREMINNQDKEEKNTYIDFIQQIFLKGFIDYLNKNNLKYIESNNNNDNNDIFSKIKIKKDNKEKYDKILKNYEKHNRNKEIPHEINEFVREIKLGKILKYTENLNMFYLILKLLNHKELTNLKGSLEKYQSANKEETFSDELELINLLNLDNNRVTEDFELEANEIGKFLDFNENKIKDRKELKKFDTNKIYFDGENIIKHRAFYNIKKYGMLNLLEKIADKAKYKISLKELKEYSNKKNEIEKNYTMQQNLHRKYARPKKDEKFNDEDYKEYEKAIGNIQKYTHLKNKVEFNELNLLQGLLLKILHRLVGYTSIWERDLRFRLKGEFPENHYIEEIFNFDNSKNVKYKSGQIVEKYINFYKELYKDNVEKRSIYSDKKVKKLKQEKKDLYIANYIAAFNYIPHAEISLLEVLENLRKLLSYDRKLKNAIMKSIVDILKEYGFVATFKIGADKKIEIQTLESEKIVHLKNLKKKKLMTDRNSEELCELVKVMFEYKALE
The data set is described as follows: EMSA; crRNA complex; 5 mM MgCl2, 37 C. Conditions: label: body 32P for EMSA.

Data set [6] concerns the target T1, RBD #2L LwaCas13a (hnRNP A1 1-104 in …). Description: cleavage_in_vitro; collateral cleavage of RNaseAlert, 30 min. Conditions: label: body 32P for EMSA. On the technique in general: In EMSA bound probe runs differently from free probe, usually more slowly.
In data set [7] the target is T6, RBD #1L LwaCas13a (ADAR1 708-801 in Loop 1) (Leptotrichia wadei / Homo sapiens).
T6 chain: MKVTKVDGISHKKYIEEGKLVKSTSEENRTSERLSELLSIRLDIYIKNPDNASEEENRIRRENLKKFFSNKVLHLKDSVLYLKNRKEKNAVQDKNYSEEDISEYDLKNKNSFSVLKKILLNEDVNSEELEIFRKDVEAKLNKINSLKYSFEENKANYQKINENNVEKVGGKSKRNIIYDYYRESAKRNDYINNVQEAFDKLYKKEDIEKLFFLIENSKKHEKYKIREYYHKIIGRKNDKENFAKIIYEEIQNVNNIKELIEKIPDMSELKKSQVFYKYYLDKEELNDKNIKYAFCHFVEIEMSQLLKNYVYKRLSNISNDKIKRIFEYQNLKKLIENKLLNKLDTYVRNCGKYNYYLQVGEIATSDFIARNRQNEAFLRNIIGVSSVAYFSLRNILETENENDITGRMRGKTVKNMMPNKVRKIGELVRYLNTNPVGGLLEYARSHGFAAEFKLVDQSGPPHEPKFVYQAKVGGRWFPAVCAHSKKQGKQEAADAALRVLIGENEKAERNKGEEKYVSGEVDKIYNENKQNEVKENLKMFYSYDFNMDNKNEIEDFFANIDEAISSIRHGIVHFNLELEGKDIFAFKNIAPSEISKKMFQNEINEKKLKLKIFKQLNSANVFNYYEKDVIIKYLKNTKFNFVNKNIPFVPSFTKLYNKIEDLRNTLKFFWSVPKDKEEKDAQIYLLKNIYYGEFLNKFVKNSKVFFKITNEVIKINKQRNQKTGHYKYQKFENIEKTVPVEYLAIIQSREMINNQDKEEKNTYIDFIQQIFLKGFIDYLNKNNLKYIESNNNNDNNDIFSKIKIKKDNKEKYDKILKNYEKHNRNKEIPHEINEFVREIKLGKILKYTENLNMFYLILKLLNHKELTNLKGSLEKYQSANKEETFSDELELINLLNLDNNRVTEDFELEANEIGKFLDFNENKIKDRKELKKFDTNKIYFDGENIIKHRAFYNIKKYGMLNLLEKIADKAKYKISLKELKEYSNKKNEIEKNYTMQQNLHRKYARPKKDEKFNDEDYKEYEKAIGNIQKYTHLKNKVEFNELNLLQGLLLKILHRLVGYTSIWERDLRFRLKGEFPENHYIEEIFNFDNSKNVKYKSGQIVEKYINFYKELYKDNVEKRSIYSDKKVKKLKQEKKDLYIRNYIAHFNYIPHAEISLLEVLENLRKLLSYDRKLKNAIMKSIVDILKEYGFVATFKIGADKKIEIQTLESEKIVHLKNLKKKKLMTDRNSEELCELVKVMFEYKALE
Described as above. As to conditions: label: body 32P for EMSA.

Data set [8] deals with T2, RBD #3L LwaCas13a. The data set is described as above. As to conditions: label: body 32P for EMSA.
Data set [9] concerns the target T3, RBD #6L LwaCas13a (ADAR1 126-202 in …). Described as above. As to conditions: label: body 32P for EMSA.
For data set [10], the target named is T4, RBD #4L LwaCas13a. Described as above. As to conditions: label: body 32P for EMSA.
Data set [11] has as its target T5, dWT LwaCas13a. Description: EMSA; crRNA complex; 50 mM Tris pH 8.0, 60 mM NaCl, 5 mM MgCl2, 37 C. As to conditions: label: body 32P.

B1: cr3_ssRNA1_0 crRNA ; T3_ssRNA1 target (ssRNA ; ssRNA)
RNA 1: GACUACCCCAAAAACGAAGGGGACUAAAACUAGAUUGCUGUUCUACCAAGUAAUCCAU
RNA 2: GGCCAGUGAAUUCGAGCUCGGUACCCGGGGAUCCUCUAGAAAUAUGGAUUACUUGGUAGAACAGCAAUCUACUCGACCUGCAGGCAUGCAAGCUUGGCGUAAUCAUGGUCAUAGCUGUUUCCUGUGUUUAUCCGCUCACAAUUCCACACAACAUACGAGCCGGAAGCAUAAAG
B1: the binding signal was 59 % higher than WT in data set [1], 102 % higher than WT with RBD #3L LwaCas13a [2], 38 % higher than WT in data set [3] and 91 % higher than WT with RBD #4L LwaCas13a [4].

B2: cr1_N crRNA ; T1_N target (105 nt) (ssRNA ; ssRNA)
RNA 1: GACUACCCCAAAAACGAAGGGGACUAAAACAAUCUGAGGGUCCACCAAACGUAAUGCG
RNA 2: GUCUGAUAAUGGACCCCAAAAUCAGCGAAAUGCACCCCGCAUUACGUUUGGUGGACCCUCAGAUUCAACUGGCAGUAACCAGAAUGGAGAACGCAGUGGGGCGCG
Broadly, the Kd is the equilibrium constant for the complex coming apart. Read a low Kd as tighter binding. The molecule B2 gave a Kd with dWT LwaCas13a [5] of 16 nM. The binding signal in data set [6] worked out at 216 % higher than WT; in [7] it was 59 % higher than WT; with RBD #3L LwaCas13a [8], 468 % higher than WT; in data set [9] it was 174 % higher than WT; with RBD #4L LwaCas13a [10], 518 % higher than WT.

B3: cr1_N crRNA ; T26_N_2 target (36 nt) (ssRNA ; ssRNA)
RNA 1: B2 RNA 1
RNA 2: ACCCCGCAUUACGUUUGGUGGACCCUCAGAUUCAAC
In turn, B3 came in with a Kd with dWT LwaCas13a [11] of 46 nM.
